# Reference: the RNAGym collection of RNA variant scans (doi:10.7554/elife.80360)
# B1: Hairpin Ribozyme (parent)
# chain: GUCCUCUUUCACGUGCGCGUGAAAGAGAGAAGUGAACCAGAGAAACACACGUUGUGGUAUAUUACCUGGUA
# Variants of: B1
# Assay: self-cleavage, relative activity (ratio to wild type); higher = more cleavage; co-transcriptional
row,Variant,self-cleavage
1,G17C G51A,0.718
2,G17C G51C,0.668
3,G17C C37U,0.542
4,G17U G29C,0.105
5,G17C G25U,0.505
6,G17C G25A,0.417
7,C16U G17A,1.19
8,C16U A49U,0.281
9,C16G G27U,0.106
10,C16G G27A,0.37
11,C16G G27C,0.222
12,G17C A30G,0.0659
13,G17C A30U,0.118
14,G17U A31G,0.6
15,C16U G56A,0.208
16,G17A G19U,1.02
17,G17C U52A,0.816
18,G17C U52G,0.821
19,G17U U33A,0.116
20,C18A A47U,0.181
21,G17U C18U,0.926
22,G17U C18G,0.979
23,G17U C18A,0.966
24,C18A A26C,0.527

row,Variant,self-cleavage
1,C18A A26G,0.888
2,C18A A26U,0.898
3,G17A G69U,0.203
4,G17C C48A,0.173
5,G17U A43C,0.0947
6,G17U A43U,0.0903
7,G17C G21A,0.618
8,G17C G21C,0.494
9,C18A G68A,0.272
10,C16G G32U,0.18
11,C18A G27U,0.332
12,G17C A59U,0.122
13,C18A C65G,0.091
14,C16G A36C,0.399
15,C16G A36G,1.06
16,C16U U62G,0.107
17,C16U U62C,0.384
18,G17U G25C,0.682
19,G17U G25A,0.653
20,G17U U55G,0.351
21,C16U U52G,0.761
22,C16U G25A,0.668
23,C16U G68A,0.283
24,G17C U58G,0.432

row,Variant,self-cleavage
1,C16U A47C,0.567
2,C16U A47G,0.16
3,G17U U52A,1.21
4,G17U U52G,0.8
5,C16G U63C,0.204
6,G17U G40C,0.18
7,G17U G40A,0.342
8,C16U C38U,0.443
9,C16U C38G,0.206
10,G17U A39G,0.29
11,C18A A36C,0.711
12,C16G A24U,0.69
13,C16G A24C,0.688
14,G17A U20C,1.13
15,G17U A24U,0.865
16,G17C G68C,0.238
17,G17A G27C,0.074
18,G17U A64U,0.16
19,G17U A64C,0.245
20,C16G U62G,0.181
21,C16G U62A,0.168
22,G17A G40C,0.153
23,C16G G29C,0.141
24,C18A A45G,0.187

row,Variant,self-cleavage
1,C16G U52C,0.718
2,C16G U52G,0.443
3,G17A G25U,0.494
4,C18A U70A,0.916
5,C16U A28U,0.723
6,C16U A28G,1.32
7,C18A G54U,0.62
8,C16G G19A,0.646
9,G17U G42C,0.281
10,G17C U67G,0.161
11,C16U U60C,1.26
12,C16G A28C,0.289
13,G17U C37G,0.256
14,G17U C37U,0.564
15,G17A A26U,0.768
16,G17U G56C,0.126
17,G17U G56A,0.194
18,G17U U62C,0.138
19,C16U U20G,1.01
20,C18A U58A,0.577
21,C18A U58G,0.652
22,G17A C37U,0.463
23,C18A G57U,0.439
24,G17U G69C,0.296

row,Variant,self-cleavage
1,G17C A26U,0.414
2,G17C A26G,0.709
3,G17U A44G,0.273
4,G17C A49C,0.146
5,G17U A47C,0.347
6,G17A A30C,0.231
7,G17C C46U,0.113
8,G17U G21A,0.491
9,C18A C37G,0.351
10,C16U A22U,0.972
11,C16U A22G,1
12,G17C A45U,0.12
13,C18G A26G,0.828
14,G17A A22G,1.12
15,G17A A22U,0.892
16,G17A A22C,0.866
17,G17A G51U,1.06
18,G17A A23U,0.892
19,G17A A23C,0.987
20,C16G U58C,1.06
21,C16U A30C,0.0996
22,C16U A26C,0.839
23,C16G U20C,0.868
24,C16G G34U,1.34

row,Variant,self-cleavage
1,C16G G34A,0.883
2,C16G U70G,0.508
3,G17A C65G,0.485
4,G17U A59G,0.192
5,G17U G54U,0.579
6,G17U G54A,0.642
7,C18G A28C,0.445
8,C18G A28G,1.11
9,G17U A30G,0.134
10,C18A G32U,0.135
11,G17C G40A,0.253
12,G17C G40C,0.168
13,C16A U70G,0.461
14,G17C A35C,1.04
15,G17C A35G,0.801
16,C18A A24G,0.95
17,C16U A31G,0.742
18,C16U A31U,0.211
19,C18A A49C,0.208
20,G17U C38G,0.158
21,C16G U53C,0.949
22,G17A U58C,0.869
23,G17A U58G,0.78
24,C16G C48A,0.0451

row,Variant,self-cleavage
1,C16G C48G,0.19
2,G17C A28C,0.347
3,G17C A28G,0.957
4,G17C A28U,0.28
5,G17U C48U,0.11
6,G17U C48G,0.0807
7,C18A C38U,0.526
8,C18A C38G,0.213
9,G17A A61G,0.107
10,G17A G68U,0.243
11,C16U G40C,0.11
12,C16U G40A,0.276
13,G17A G54C,0.429
14,G17A G54U,0.667
15,G17C A22U,0.644
16,G17C A44C,0.136
17,G17C A44G,0.121
18,G17C U63C,0.276
19,G17A A64C,0.143
20,G17C A31U,0.0868
21,G17C A31C,0.172
22,C16U G19C,0.867
23,C18A G51U,1.12
24,C18A G51C,0.896

row,Variant,self-cleavage
1,C16U A45U,0.128
2,C16U A45G,0.135
3,G17C A36U,0.356
4,G17A A31U,0.105
5,G17A A31G,0.694
6,C16U C48U,0.179
7,C16U C48G,0.108
8,G17C A23C,0.603
9,G17C A23U,0.572
10,C16U G51A,1.06
11,G17U A49C,0.177
12,C16G G17A,0.894
13,C16G G17C,0.717
14,G17C A43G,0.131
15,G17C A43C,0.118
16,C16U U67A,0.325
17,G17A G32C,0.0599
18,G17A G32U,0.123
19,G17A G57U,0.301
20,G17A G57A,0.228
21,C16U A64U,0.162
22,C18A G56C,0.136
23,G17U C50A,0.232
24,G17U C50U,0.326

row,Variant,self-cleavage
1,C16G U60A,0.62
2,C16G U60C,1.06
3,G17A U52A,0.912
4,G17C G56U,0.185
5,G17C G56C,0.171
6,C16U A61C,0.254
7,G17C C66U,0.346
8,G17C U62A,0.115
9,C16G C66U,0.422
10,G17C G32A,0.131
11,G17C G32U,0.0811
12,G17U A71C,1.39
13,C16G A71U,0.552
14,G17C C18U,0.902
15,C16U A35U,0.916
16,G17U G27A,0.374
17,G17U G27U,0.239
18,G17U G27C,0.165
19,G17C G29C,0.113
20,C18A G69U,0.339
21,C18A G69C,0.403
22,C16G A59G,0.17
23,C16G A47C,0.293
24,G17C G19U,0.502

row,Variant,self-cleavage
1,C16U A71C,1.41
2,C16G A39G,0.288
3,C16G A39U,0.355
4,C16G C18A,1.03
5,C16G A23C,0.763
6,G17U G19A,0.629
7,G17U A26U,0.632
8,C16G G51A,0.798
9,G17C G69C,0.124
10,G17A U62G,0.0926
11,G17A U62C,0.166
12,G17A G21U,0.901
13,G17U U20A,0.59
14,C18A G34C,1.56
15,G17C C65U,0.24
16,G17C C65G,0.339
17,C18A C50G,0.309
18,C18G A24G,0.927
19,C18G A24C,0.731
20,C18A A31U,0.0438
21,C18A A31G,0.746
22,C16U A39C,0.641
23,C16U A39U,0.312
24,G17U G68A,0.258

row,Variant,self-cleavage
1,G17C A24C,0.614
2,G17U C65A,0.892
3,G17U C65G,0.269
4,C18G A23C,0.746
5,C16G C46U,0.0715
6,C18A A39C,0.538
7,C18A A39U,0.345
8,C16U G69C,0.396
9,G17A C48U,0.176
10,C18A A41U,1.37
11,G17U A23C,0.898
12,G17U A23G,0.632
13,C18A A28C,0.492
14,C18A A28G,1.43
15,C18A U20C,0.97
16,C16U A59G,0.109
17,C16U A59C,0.17
18,G17A A44G,0.233
19,G17A A44C,0.119
20,C16G A30G,0.0703
21,C16G A30C,0.177
22,G17A C50A,0.21
23,C16G C65U,0.167
24,C16G C65A,0.976

row,Variant,self-cleavage
1,G17C A64C,0.186
2,G17A A35G,1.2
3,G17A A35C,0.945
4,C18A A59C,0.159
5,G17C G42U,0.134
6,G17C G42C,0.306
7,C16U A43U,0.134
8,C16U A43G,0.0631
9,C18A U67G,0.329
10,C18A U67A,0.191
11,C18A A22C,1.04
12,C18A A22U,0.794
13,C16G A31G,0.431
14,C18A C46G,0.12
15,C16G A26G,0.766
16,C16G A26C,0.388
17,G17U U63A,0.128
18,C16G U55C,0.239
19,C18A A30U,0.16
20,G17C A71G,0.694
21,G17C A71C,1.18
22,C16G C37A,0.244
23,C16G G57C,0.108
24,G17C G54U,0.417

row,Variant,self-cleavage
1,G17A U33G,0.0712
2,G17A U33A,0.12
3,G17C U55C,0.216
4,G17A A43G,0.0835
5,C18A A23G,1.02
6,C18A G21A,0.895
7,C18A G21C,0.885
8,C16U G29C,0.1
9,G17U G57A,0.201
10,G17U G57U,0.264
11,G17U G57C,0.151
12,C16G A49U,0.221
13,C16U A23U,0.992
14,C16U A23C,1.03
15,C16G A41G,0.593
16,C16G A41U,1.35
17,G17A U60C,1.36
18,G17C A41U,1.27
19,C16U G57A,0.272
20,G17C U60A,0.582
21,C18A A35C,1.2
22,G17A A39U,0.44
23,C18A A61U,0.138
24,C18A A61G,0.25

row,Variant,self-cleavage
1,C18A A61C,0.132
2,G17A C18A,1.2
3,C16G G56A,0.073
4,C18A U63A,0.13
5,C18A U63G,0.204
6,C18A C48G,0.0794
7,C18A A44C,0.219
8,C16U G27C,0.202
9,G17C G27C,0.154
10,G17C G27U,0.116
11,G17C G27A,0.419
12,G17A C66G,0.268
13,C18A G19U,0.923
14,C16G G25U,0.547
15,C16G G25C,0.302
16,C18A U55G,0.296
17,C18A U55A,0.364
18,G17U U60C,1.35
19,G17C C50U,0.286
20,G17C C50A,0.248
21,C16U U70G,0.722
22,G17U A45C,0.156
